From article PMC3264736

Molecular target: Pitx2 homeodomain wild-type (UniProt Q99697 85-144)
Assay: ITC

B1: TAATCC consensus DNA (dsDNA)
DNA 1: GCTCTAATCCCCG
DNA 2: CGGGGATTAGAGC
Kd: 66 nM
